Assay results reported in the domain aggregation screens of Martell et al. (2025).

Experiment: soluble fraction after stress (log2 fold change); higher = more stays soluble; pooled small domains, quantitative proteomics
Details: stress: pH 4
Method in brief: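 Aggregation propensity is read out as the fold change in how much of each domain remains soluble after acid stress. The custom small-domain libraries were pooled, held at pH 4 and analysed with high-throughput quantitative proteomics. On the log2 scale used, higher values mean more of the domain stayed soluble.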

Sequence	soluble fraction (log2)
HMNGVPDMSPVPEGARNSTLHAWAFGRLKNHPDNETGIREDLFRRGHASGLQDAELDQIWKSIKRTL	≥ 0.43
HMTQTAVFSKGEQEYYFPLSKVLFFETDGNTINVHTADDIYETRYRLYELEEMLPGSFMRISKSAVVNTNR	-0.161
HMRTGLSGMIGEIGIVKQAIDPEGKVAVHGELWKARADVALAAGQTVRVVAVDGLTMTVEATDSK	0.0837
HMKTMEQSYIGRKIILDENVEDSALIKFEGIYWTFKSVSGPLKKGTEVEIIGIEGNKILIKNK	0.181
HMGITRQQALQQINQSASPKKILNASLGKRGSEFVWDIGYLSKSGKLNYVTYSFRSGEQLNAIKN	-0.504
HMVYNGYYAKSFNGYVVILNGDEKTVYEYTQIPIHLLPEDIRSSVMSGYYLENETDLYNFLENYS	-0.211
HMGSKKITIYVSGEVKNPGIVTLNSDQRLASAVEKLGGVTENADMNNINLAMKLEDEMHYIIPKKGEK	0.149
HMTGDIIKQERKKKNLTQIELAKKVGISRNALINYEAGTRIPPISVQLKLADVLGIDILDLK	-0.0221
HMSVIETLLSDREREVLTHLVNGYDAKRIAEITGISTLTVRKHIANIYTKLHVNSKAQVISMAHKNKWF	-0.773
HMLFVKLSDAQRSMFGAKLARDARIQSEYAQKLPSENYEVFGKALADMLLDETHFKTFYPLLVEYGYTQPK	-0.649
HMTDSLELADLLRRAIITGEYKPRERLVEMELAQKYSVSRTPVREALKHLEALGLVKMERYKGAMVAD	-0.573
HMGTRYVEFVIPGTGNHEVRIVSSNGSRQNVEVAGTYPGGARLRTKVDNGVRRVSFYVDNRLVEEKQ	-0.0183
HMNVDSLIGKKARVLEDIDNLNAKGQVSIDGMEWTARSEDGSEIKKDALVEVVAIEGVKAIVKQ	-0.127
HMIYMIDPNDEIAVKLDEIYQRYLNRTIDPEGLIFFYNQIRNAQMGYSDVEKRILESPEYVSIPK	-1.23
HMIIVMSANANAREISEVIARIRAMGYDVHLSHGKERTIIGVIGRGTPIDREQLSLMSGVQQVMPV	-0.109
HMLTGESDNVEKSINKLGTENLALADQTNMGFKGTFINSGHGMAIVVKTGMQTELGKIASMIQIA	0.22
HMTVKKEIAKVKPTPLGWLRVRETPSLNGAEITKVNTGESYDVLDKETGWIKIKVSETVEGWVSDAYIELS	0.124
HMTAPDDFIRAEVTASGKNGMAVAELSKRVRTRFKSFKVRELGYPHLAGYLADVEGVRVYKQGRENWVAK	-0.241
HMYEHLKALRESLGMTQAEFGESVGVAKSTYNNYEIGARDPKSDFWIAVAQRYGVTIDYLMGFSDDPKKT	0.253
HMVTQVDYGTFLTRIDEGKVKSVEIQDNQIAFTAIDEAGKENIYVTGKVNDPELVDRLLAADIEDFSQVIP	-1.29
HMGKNIQAIRYKNNMTQDQVVAKLNLMGISITKSTYAKLETNRMNIKASELVALAKLFHTDINAFFSG	-0.0779
HMNTTTTKVVSVSSLNMRSGPSTSYNIIEVLTKDTQVEVISVEDGWAKIKYNSKTGYVSNQYLSDKK	-0.0101
HMAPNVEENSKLIGEIGMTLTPLRPSGIATINNRRVDVVSNGDFIDQDERVMVKRVQGARVVVIPV	0.1
HMYYHQIIGLDVVDENGNTLGKIKEILSPGANDVWVVKRKQKNDLLLPVIDDVIKDVDLAAGKVHVELLEG	-1.38
HMNVKVSVDDIARPGLMASGRVTFADGNRGMWYVDEMGRLGIDPEVEGYQPSEADIQAFQRELQSVMES	-0.927
HMNGAVAEQARKQLMAALKASEFIAEEKLDEWLDALALPEDKRTAIVDAVDELDYEEAISELEN	0.0531

Sequence	soluble fraction (log2)
HMEQFDFTILRELRKRAGLSIGEVSAESGVSAAVISKLERNRTRAELDTLYRLARVFGITAAELLNLAEA	-1.76
HMRIGINDRIHEIVDVLRLKKSTPFEDLFSGLVTRFDLVITFLALLEMGKLRLLRLYQTDPLAPLHVEYTG	0.0416
HMKAAQDQDQAATLLQKATGVNQDQAKLAATVLFKEQSVTPIRQAIASGDYYQAYQDAKSLQQQ	0.22
HMARKISVEALGKYFPNSPMLAAAVAVTGVMKKDEFIHEMRASYKHKFAKKPEVIDGNMKALTMTFEA	-0.122
HMKEVKAPMPGMVLRVEVAPGQEVQEGDPLLVLEAMKMENNLKSPASGTIKSVHVEAGKAVEKGAVLVVF	-0.257
HMSSDLLGVRVRRARARAGLTRRRLSLLSGVSERFLAQLESGQGNISIVLIRRVAAALGAELVELIGS	-0.0528
HMPAASDALAGELAQIARLDIAKLLAGDLSEADWSRITSATVQLSERHPDASDELTALVERIDTAYSARAT	-1.32
HMNLYENLATHVKNAIRQGVYQPGDRLPSVRRLSEQHRVSQNTAVSAYRLLESHGWLEARPQSGFFARHP	0.297
HMYPIYDYISNMYLGKHLNAGMSLEEARGIMDEMLEKLLFDVPEEYHIDRDHFYEYLKKYYTERFSA	-1.7
HMQRIFIDNHDRILYYSNPAGYIAGKEAVVDTMFQTQELERFLQKQSLSIRWEDGVYDRLLLGQ	-0.725
HMVITQVSTTQTDTTFQYHKVKPKETLFSISRLYEVSIDEIKTINPALNSRELMAGELLKLPIK	-0.337
HMEEIALTDILNRFLSSLSLEQRKIFMRRYWYLSPIKEIATEYGMSESKIKMSLFRSRNELKKLLEKEGI	-0.406
HMEAKSSTKALLDVVLGRNGVSTANVAKSLNISVQNASTRLKKLSSEGVIMRSEVSSPTGGIEFIYS	0.22
HMEVNLEPLIALLRKHRDLDLSGYSKSTLGRRITYFMGLNKISSIDELGRRLAEDDLLFQEFLDKLT	-0.818
HMSLETRRYQLPRTDAQTASGLLRSLSGLPGVREVNLSGEGVAYLKVDSKGFDEQNVIKLLAGE	-0.0727
HMNMMESNLFAVYDNDDIVKTLRQGAMEIDSLIRLMGKSSAEVLEKLTTMELQGIITRSGNIIALNN	-1.38
HMRLPQEVWEKIRAAYEAHGLSFSELAEMYGVNKSNISRRAKAEGWNQAETQRLITATVENE	0.211
HMGDLEEAVKDFSEAIRLNDSWAEAYANRAVVYAEQGDAAQSDQDAEKARLLGVDQNRLNEMLNAVNS	-0.21
HMESNDSNIEDDFYEGLKSMRKGDLKMSVVFFTRVIEKKPTFAEAWNRRATVYYMLGKFDKSMFDINETLK	-0.17
HMHSQVFTDPDKAKNAVVKLGAPLVVKADGLALGKGVIIAQNPQAAKEAVASVGSSGISSISVT	0.22
HMEQPAPSTTVDILGGGRAALVTANRELGLALADDEIDYLTDSFTQLGRNPVDVELMMFAQA	-0.224
HMLTKAEEQVMDYLWKLEKAFVKDILDEFPEPKPAYTTVSTMVRILEKKGMVGYTAYGKNHQYYPL	-1.18
HMYIDANTALLAKRIQAKNGFLPLSDKSTAEEIYAEFGISKKAFKKALGALYKERLVRIGDEGVVWV	0.0176
HMDKNLQYADTPKGKLREYIKNLPNGSTVNRQKLAEEFGIKKQSMGTVTEVFQEFPDKNFKFVNP	-0.157
HMPALELLVESKKPLLIHGEKIAEDINLFDREKYFIDDELIRIVKEFPSLKIILEHVSSKYGAD	-1.59
HMALLSNTVDELHAGMRLDSYLFESGLYPSRSFAVKQIEAGKVFLNGDAVTKKTLVSNGDFIVYELEE	-0.506

Sequence	soluble fraction (log2)
HMEDSEYDRLLAEIDEGIRKAIETLEPVELSPQNARVRRIQHQIIEKYQLHSDSVGEEPYRRVRIL	-1.03
HMYEGNEFSSTGMFREDILAITAVHPMREDAVTELLARSNESEETLEMMIDEELLRRVAYGNHNYYMRRFR	-0.388
HMPERMLEPLLNGNEIMKVTQLQPGPKVGLIRDALLQAQISGDVTDTESAKAFVQDYAKRNI	0.386
HMEHETTQLELNAPGQRLDAALALALPDTSRAQIQQWIKQGLVTDQAGTALLQASLKLKSPLNVVLQRPI	0.0662
HMVSDAELTSQATTAITAYPGTSVEVKEGQAHLSGTFATEADKQAAIDALKKIQDVKDVHDMATV	0.0294
HMQNAETPDVAAEFRTWTSADGQFQVIAKLVKLDGESVHLERQDDGRQIAVPLGKLSSEDRLFLRGVRP	-0.0636
HMMESLGIRLKRLRKDKGLTQVELGKLSGVTGVTIGYWEKDLNEPGSKALSKLAQALGTTESYLLYGVS	0.22
HMIMHLNQIIRNKRLAAGLTQEALAQKVGVTAPAVSKWEKGISYPDITLLPILARNLNTDVNTLLDFSA	0.0644
HMLKSGSAVAQARDVILEKGVPVHINEILDALGKGDTREAKASLTSSLAAYVRRGEIFTRPAPNTFGLVEL	-0.378
HMEEMTIRQKRTMIFFIEATKHILQEDGYDHLTIREIAQRAGYNAATLYHYFRDLDELIIYGSVG	-0.602
HMDAVKKKVQSTNTLLDVLKQMLPQTSSNTLRKMLTNQRITVDGETIHRAKHTVEKDQTVEIHPKP	≥ 0.43
HMQQTAEDWKNKGDSLTAQSEYVEAIAAYDEAIRLDPNYAPAWSNKGNALKNLGEYYKAIQAYDEAIRL	-1
HMGDLKALMPGKVTQVLVSGGQKVKVGEPVLLMESMKMEQTIVATKDGDISEILVSEGDTVEVGKIMIKI	0.0925
HMDAYMIGHNIAKWRKEKGMTQDQLAEHLSVSGQAVSKWENGASLPDIAILPKLAEIFDVTMDQLFSR	0.166
HMTVDTSELEEMIDDLIKEHPNEWERYSSGEKKVQGFFVGQVMKATSGQADGKAINQILSKRVKS	0.000391
HMTSEPFYNPRRPQPYWTSETDRHTTYADAVRALAREFSETPEWVESNMGETNDLQEIRRNLSRVKSG	-0.108
HMKMLEINDNDSVGLKNLKTQYNHNQKVIENFQLEINKVINDGELPDKYLLDGMEKYQKLNMQIMSTIEKQ	0.221
HMAKDDFMSFVKAVWPEFIEGAHHRVIAQKFNDLATGKITRLIVNMPPRHTKSEFASYLLPAW	-0.144
HMSVPEAAERAIDVAQMRRALGELSPEQQRVLELAYFGGLTRQEIARATGTPLGTVHTRARLGLQNLRARL	-0.0378
HMQLFKFKNAMMELAKNKNITLDTAEKAIGLEAGFTELVARGVKELALSDVIKISKYFNTTMDSVLD	-0.995
HMSKQKRIKYFLSILNIKSIKQFRKKDLDYFYQKRFIEIQKSSKDKKLVSNQLIELNAAKEYLDEIDFEN	0.295
HMKGTVLAPGIILNADDQRFTYLQEDVASVAKDGAAIVLKQGDEVDFIADGQTAKQIYLTKT	0.0738
HMAERVWASLLEIKNAVAIEDAKTLEDVDNSEKIAEERIAALNDDAKHPLAIAFIGKLRQDIAEKKIELA	-1.19
HMLDVGDQLVKKLKDNDSLDFHFVNSKEANKGLKDGDYYMVITIPSNFSKNATTLLDKNPKKMVLNYTTNP	0.13
